Measured values from patent US20140294830A1 (SAMSUNG LIFE WELFARE FOUNDATION, published 2014).

Target: T1, human c-Met/Fc fusion protein (R&D Systems) (human, UniProt P08581 25-932)
T1 construct: Bought reagent; Coated on the ELISA plate at 2 ug/mL; also called human c-Met/Fc protein; not shown: Fc part of the bought fusion protein; not described
Experiment: ELISA, human c-Met/Fc coated at 2 ug/mL, hybridoma culture, anti-mouse IgG-HRP
Description: Human c-Met/Fc fusion protein was seeded in an amount of 50 μL (2 μg/mL)/well to microtiter plates and allowed to adhere to the surface of each well. The antibody that remained unbound was removed by washing.
The hybridoma cell culture obtained in Reference Example 1.1.2 was added in an amount of 50 μL to each well of the plates and incubated for 1 hour. The cells remaining unreacted were washed out with a sufficient amount of Tris-buffered saline and Tween 20 (TBST). Goat anti-mouse IgG-horseradish peroxidase (HRP) was added to the plates and incubated for 1 hour at room temperature. The plates were washed with a sufficient amount of TBST, followed by reacting the peroxidase with a substrate (OPD). Absorbance at 450 nm was measured on an ELISA reader.

T1 sequence (P08581 25-932 limits assumed): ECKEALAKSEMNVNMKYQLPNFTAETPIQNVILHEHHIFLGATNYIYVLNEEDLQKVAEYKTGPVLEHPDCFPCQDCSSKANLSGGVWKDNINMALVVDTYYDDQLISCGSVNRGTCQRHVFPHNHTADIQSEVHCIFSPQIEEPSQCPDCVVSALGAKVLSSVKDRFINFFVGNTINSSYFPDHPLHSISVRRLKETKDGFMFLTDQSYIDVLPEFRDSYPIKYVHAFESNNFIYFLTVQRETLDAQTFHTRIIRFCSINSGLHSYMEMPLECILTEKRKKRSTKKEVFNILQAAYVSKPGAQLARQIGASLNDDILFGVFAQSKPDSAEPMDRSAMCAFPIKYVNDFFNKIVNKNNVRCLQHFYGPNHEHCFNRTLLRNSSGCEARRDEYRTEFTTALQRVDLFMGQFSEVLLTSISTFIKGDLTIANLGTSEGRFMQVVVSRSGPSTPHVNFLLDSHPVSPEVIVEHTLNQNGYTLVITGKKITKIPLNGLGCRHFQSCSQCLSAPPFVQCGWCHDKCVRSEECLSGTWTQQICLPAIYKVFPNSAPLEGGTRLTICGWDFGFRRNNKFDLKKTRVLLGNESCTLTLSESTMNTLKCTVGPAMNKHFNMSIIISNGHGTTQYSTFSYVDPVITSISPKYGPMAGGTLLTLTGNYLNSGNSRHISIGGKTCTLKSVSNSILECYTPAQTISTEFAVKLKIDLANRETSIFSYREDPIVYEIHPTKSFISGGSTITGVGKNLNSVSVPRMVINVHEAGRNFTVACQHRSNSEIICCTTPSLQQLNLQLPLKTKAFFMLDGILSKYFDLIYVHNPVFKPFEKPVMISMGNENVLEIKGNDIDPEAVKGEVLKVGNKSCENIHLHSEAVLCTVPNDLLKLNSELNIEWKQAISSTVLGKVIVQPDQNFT

B1: AbF46, mouse monoclonal antibody to c-Met (antibody, V domains shown)
VH: EVKLVESGGGLVQPGGSLRLSCATSGFTFTDYYMSWVRQPPGKALEWLGFIRNKANGYTTEYSASVKGRFTISRDNSQSILYLQMDTLRAEDSATYYCARDNWFAYWGQGTLVTVSA
VL: DILMTQSPSSLTVSAGEKVTMSCKSSQSLLASGNQNNYLAWHQQKPGRSPKMLIIWASTRVSGVPDRFIGSGSGTDFTLTINSVQAEDLAVYYCQQSYSAPLTFGAGTKLELK
notes: Tested as hybridoma culture supernatant in the selection ELISA; also called monoclonal antibody produced by hybridoma KCLRF-BP-00220
Q: Does B1 bind?
A: binds
